This is an account of results in the nanobody polyreactivity screen of Harvey et al. (2022).

The series is described as follows: yeast display, Sf9 membrane polyspecificity reagent, FACS + sequencing; frameworks hold sequencing errors. The method, boiled down:
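A nanobody's polyreactivity label depends on the gate it was sorted from. Yeast display cells were stained with 10% biotinylated, detergent-solubilized Sf9 membrane reagent for 1 hour at 4 °C, enriched on streptavidin microbeads and sorted by FACS. The low and high (top ~1%) gates were set on anti-HA fluorescence for expression and streptavidin fluorescence for reagent binding.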
Consider “QVQLEESGGGLVQAGGSLRLRCAASGRTFGYYAMGWYRQAPGKERQLVASITSGGRTYYADSVKGRFTISRDNSKNTVYLQMNSLKPEDTAVFYCAADRFGIGGKSGNDYWGQGTQVTVSS”, for which the “polyreactivity (PSR sort gate)” value is “high polyreactivity”.

Turning to “QVQLEESGGGLVQAGGSLRLSCAASGCTLTDYAMGWYIQAPGKERELVAAISSVGSTNYADSVKGRFTISRDNAKNTVYLQMNSLKPEDTAVYYCAVDYGRAVQGDSITYDFNYWGQGTQVNVSS”, the “polyreactivity (PSR sort gate)” value was “low polyreactivity”.

For the sequence “QVQLEESGGGLVQAGGSLRLSCAASGFIFPHYTMGWYRQAPGKERELVAAISSSGGSTYYADSVKGRFTISRDNAKKTVYLQMNSLKPEDTAVYYCPGPLPYYGQYDYWGQGTQVTVSS”, the “polyreactivity (PSR sort gate)” value is reported as “low polyreactivity”.

As to “QVQLEESGGGLVQAGGSLRLSCAASGFIFQYNAMGWYRQAPGKEREFVDAINYSGGNTYYADSVKGRFTISRDTAKNTVYLQMNSLKPEDTAVYYCNVRLWYGRWWYNRYNYWGQGTQVTVSS”, the “polyreactivity (PSR sort gate)” value is reported as “high polyreactivity”.

Turning to “QVQLEESGGGLVQAGGSLRLSCAASGFIFYQYAMGSYRQAPGKVRELVAAISWNGGRTYYADSVKGRFTISRDNAKNTVYLQMNSLKPEDTAVYYCAAPVLTSDYTLDSYYWGQGTQVTVSS”, the “polyreactivity (PSR sort gate)” value is given as “high polyreactivity”.

As to “QVQLEESGGGLVQAGGSLRLSCAASGFILEYYAMGWSRQATGKETELVSTISSGGSTNYADSVKGRFTISSDNAKNTVYFQMNRLKPEDTAVFYCAAARYTLSRYYYWGQGTQLTVSS”, the “polyreactivity (PSR sort gate)” value is on record as “high polyreactivity”.

On to “QVQLEESGGGLVQAGGSLRLSCAASGFILTGNVMGWYRQAPGKEREFVAGISRSGGTYYADSVKGRFTISRDNAKNTVYLQMNSLKPEDTAVYYCAAKPIYYSRGYYWGQGTQVTVSS”, for which the “polyreactivity (PSR sort gate)” value was “high polyreactivity”.

For the sequence “QVQLEESGGGLVQAGGSLRLSCAASGFTFALYAMGWYRPAPRNEMEFVAAISRRGGSTYYADSVKGRFTISRDNAKNTVYLQMNSLKPEDTAVYYCAANYPFGVYHGAPYGYWGQGTQVTVSS”, the “polyreactivity (PSR sort gate)” value is reported as “high polyreactivity”.

Take “QVQLEESGGGLVQAGGSLRLSCAASGFTFAYYAMGWYRQAPGKERELVAGISWRGGRTYYADSVKGRFTISRDNAKNTVYLQMNSLKPEDTAVYYCNARNSYRPGRGYDYGGQGTQVTVSS”: the “polyreactivity (PSR sort gate)” value was “high polyreactivity”.

With “QVQLEESGGGLVQAGGSLRLSCAASGFTFRRYDMGWYRQAPGKERELVATINRGGSTDSADSVKGRFTISRDNAKNTVYLQMNSLKPEDTAVYYCATRYYSSRTWSEYYYWGQGTQVTVSS”, the “polyreactivity (PSR sort gate)” value is “high polyreactivity”.

For “QVQLEESGGGLVQAGGSLRLSCAASGFTFSHNAMGWYIQAPGKERELVAAITRDSGSTYYADSVKGRFTISRDNAKNTVYLQMNSLTPEDTAVYYCAADIASGYYWYDYWGQGTQVTVSS”, the “polyreactivity (PSR sort gate)” value is “low polyreactivity”.

Consider “QVQLEESGGGLVQAGGSLRLSCAASGFTFWRYGMGWYRQAPRKERELVASITSGGGTNYADSVKGRFTISRDNAKNTVYIQMNSLKPEDTAVYYCNAVFFYHGTKPAFISHDYWGQGTQVTVSS”, for which the “polyreactivity (PSR sort gate)” value is “low polyreactivity”.

“QVQLEESGGGLVQAGGSLRLSCAASGGIFLGYAMGWYRQAPGTERELVAAISDSGGSTDYADSVKGRFTISRDHAKTTVYLQTHSLKPDDTAVYYCAAERRSTAGWLYDYWGQGTQVTVSS”: the “polyreactivity (PSR sort gate)” value was “high polyreactivity”.

As to “QVQLEESGGGLVQAGGSLRLSCAASGGTFAQYVMGWYRQAPGKERELVAAISRTGGRTYYADSVKGRFTISRDNAKNTVYLQMNSLKPEDTAVYYCARVYTSYGTPWTNYDYWGQGTQVTVSS”, the “polyreactivity (PSR sort gate)” value is on record as “high polyreactivity”.

Consider “QVQLEESGGGLVQAGGSLRLSCAASGGTFYAYAMGWYRQAPGKERELVAAITRSGGRTYYADSVKGRFTISRDNAKNTVYLQMNSLKPEDTAVYYCAADPHHYSGLDYWGQGTQVTVSS”, for which the “polyreactivity (PSR sort gate)” value is reported as “low polyreactivity”.

For “QVQLEESGGGLVQAGGSLRLSCAASGIIFGRYTMGWYREAPGKERELVAAITSSGITYYADSVKGRFTISRDNAKNTVYLQMNSLKPEDTAVYYCAADSPVSVTADDGYWGQGTQVTVSS”, the “polyreactivity (PSR sort gate)” value is reported as “low polyreactivity”.

For the sequence “QVQLEESGGGLVQAGGSLRLSCAASGIIFQRNDMGLYRQAPGKERELVANIRDGGITYADSVKGRFTISRDNAKNTVYLQMNSLKPEDTAVYYCARDDTSPGYCDQSSNAAYYYWGQGTQVTVSS”, the “polyreactivity (PSR sort gate)” value is on record as “low polyreactivity”.

Consider “QVQLEESGGGLVQAGGSLRLSCAASGIIFWYYAMGWSRQAPGKERELVAAINSGDSTNYADSVKGRYTISRDNAKNTVYLQMNSLKPEDTAVYYCATVSSYTGGYWGQGTQVTVSS”, for which the “polyreactivity (PSR sort gate)” value is given as “low polyreactivity”.

Turning to “QVQLEESGGGLVQAGGSLRLSCAASGITFERYVMGWYRQAPGKERELVASISRSGSTYYADSVKGRFTISRDNAKNTVYLQMNSLKPEDTAVYYCNADRFWFHWVYSRYHYDYWGQGTQVTVSS”, the “polyreactivity (PSR sort gate)” value was “high polyreactivity”.

On to “QVQLEESGGGLVQAGGSLRLSCAASGITFFHYAMGWSRPAPGKERELVAAITWRGSSTYYADSVKGRFTMSRDNAKNTVYLQMNSLKPEDTAVYYCNAEVGYYEYDYWGQGTQVTVSS”, for which the “polyreactivity (PSR sort gate)” value is given as “high polyreactivity”.

Turning to “QVQLEESGGGLVQAGGSLRLSCAASGITFLRNAMGWYSQAPGKERELVAAISRSGGRTYYADSVKGRFTISRDNAQNTVYLQMNSLKPEDTAVYYCAVVTQFGDGYYWGQGTQVTVSS”, the “polyreactivity (PSR sort gate)” value is given as “high polyreactivity”.

For “QVQLEESGGGLVQAGGSLRLSCAASGITFLTYAMGWYRQATVKERELVAGITSGGTTYYADSVKGRFTISRDNAMNTVYLQMNSLKPEDTAVYYCNADLQEYQSYDYWGQGTQVTVSS”, the “polyreactivity (PSR sort gate)” value is “low polyreactivity”.

Regarding “QVQLEESGGGLVQAGGSLRLSCAASGLIFIYNTMGWYRQAPGKERQLVAAISGRGGSTYYADSVKGRFTISRDNAKNSVYLQMNSLKPEDTAVYYCAAQDTYHSYGLYSWGQGTQVTVSS”, the “polyreactivity (PSR sort gate)” value is “low polyreactivity”.

In the case of “QVQLEESGGGLVQAGGSLRLSCAASGLTFATYAIGWYRQAPGKERELVAAISRSGGRTYFADSVKGRFTISRDNAKNTVYLQMNSLKPEDTAVYYCNADFYASDDYWGQGTQVTVSS”, the “polyreactivity (PSR sort gate)” value is recorded as “high polyreactivity”.

In the case of “QVQLEESGGGLVQAGGSLRLSCAASGLTFEWYTMGWYRQAPGKERELVAVITVSGSSTYYADSVKGRFSISRDNAKNTVYLQMNSLKPEDTAVYYCNADWSFYSYTLYDYWGQGTQVTVSS”, the “polyreactivity (PSR sort gate)” value was “low polyreactivity”.

Turning to “QVQLEESGGGLVQAGGSLRLSCAASGLTLYKNGMGWYRQSPGKERELVAVISRSGGRTYYADSVKGRFTISRDNAKNTVYLQMNSLKPDDTAVYYCAARQYGPRYTYYYWGQGTQVTVSS”, the “polyreactivity (PSR sort gate)” value is “high polyreactivity”.

Turning to “QVQLEESGGGLVQAGGSLRLSCAASGNIFLIYAMGWYRQAPRKEVEMVAAISFSDDTTDYADSVKGRFTSSRDNAKNTVYLQLNSLKQEDTAVYFCAAELYYDVANTQYDYWGQGTQVTVSS”, the “polyreactivity (PSR sort gate)” value is given as “high polyreactivity”.

For the sequence “QVQLEESGGGLVQAGGSLRLSCAASGNIFWGNAMGWYRQAPGKEMELVAAITSIDSSTYYADSVKGRFTISRDNAKNTVYLQMNSLKPEDTAVYYCAADGDWYGYIWQSDDGYDSWGQGTQVTVSS”, the “polyreactivity (PSR sort gate)” value was “low polyreactivity”.

Regarding “QVQLEESGGGLVQAGGSLRLSCAASGRIFDVNAMGWYRQAPGKERELVPRITSDGGTYYADSVKGRFTISRDNAKNTVYLQMNSLKPEDTAVYYCNAPYWFSPGYGGFEFGYDYWGQGTQVTVSS”, the “polyreactivity (PSR sort gate)” value is listed as “low polyreactivity”.

As to “QVQLEESGGGLVQAGGSLRLSCAASGRIFEYYAMGWYRQAPGIERELVAAINTGGNTYYADSVKGRFTISRDNAKNTVYLQMNSLKPEDTAVYYCATYPIWYGGYLSGTDYDYWGQGTQVTVSS”, the “polyreactivity (PSR sort gate)” value is given as “low polyreactivity”.
